We go through six molecules from US20190367619A1 (ARGENX, published 2019).

Sequences and labels used below:
T1: human galectin-10-His (recombinant human galectin-10 with TEV-cleavable N-terminal His-tag) (human)
T1 construct: SEC-MALLS: dimer in solution; also called Gal10-His; humanGal10-His
T1 chain: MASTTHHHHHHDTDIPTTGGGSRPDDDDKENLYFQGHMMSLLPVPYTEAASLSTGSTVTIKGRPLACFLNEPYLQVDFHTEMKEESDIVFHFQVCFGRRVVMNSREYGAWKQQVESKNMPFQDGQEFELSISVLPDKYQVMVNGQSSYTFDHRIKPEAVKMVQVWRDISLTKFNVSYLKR

T2: human galectin-10 as coated in ELISA (soluble galectin-10; tag not given) (human, UniProt Q05315 1-142, limits assumed)
T2 construct: also called coated galectin-10; Gal10
T2 sequence: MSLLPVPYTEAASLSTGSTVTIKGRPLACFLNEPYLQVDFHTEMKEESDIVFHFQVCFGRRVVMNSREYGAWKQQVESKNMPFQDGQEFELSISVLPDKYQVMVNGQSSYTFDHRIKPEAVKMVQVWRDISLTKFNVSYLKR

B1: 1D11 Fab (Fab, V domains shown)
VH: QVQLVESGGGLVQPGGSLRLSCAASGFTFDDYAMSWVRQAPGKGLEWVSGISWNGGSTYYAESMKGRFTISRDNAKNTLYLQMNSLKSEDTAVYYCAKDRNLGYRLGYPYDYWGQGTQVTVSS
VL: QSVLTQPPSVSGSPGETVTISCAGTSSDVGYGNYVSWYQQLPGMAPRLLIYEVNKRASGITDRFSGSKSGNTASLTISGLQSEDEGDYYCASYRSSNNAVFGGGTHLTVL
notes: VH on human CH1 constant domain (with part of the hinge region), VL on human lambda constant domain; also called Fab 1D11; Fab-1D11
B2: 6F05 Fab (Fab, V domains shown)
VH: QLQLVESGGGLVQPGGSLRLSCAASGFTFSSYAMSWVRQAPGKGLEWVSAINSGGGSTSYADSVKGRFTISRDNAKNTLYLQMNSLKPEDTAVYYCATPGDRLWYYRYDYWGQGTQVTVSS
VL: QAGLTQPPSVSGTLGKAVTISCAGTSSDIGYGNYVSWYQQLPGTAPKLLIYKVSRRASGVPDRFSGSKSGNTASLSISGLQSEDEADYYCASYRYRNNVVFGGGTHLTVL
notes: VH on human CH1 constant domain (with part of the hinge region), VL on human lambda constant domain; also called 6F5; Fab 6F5
B3: 4E08 Fab (Fab, V domains shown)
VH: QVQRQESGPGLVKPSQTLSLTCTVSGGSITTSYYAWSWIRQPPGKGLEWMGVIASDGSTYYSPSLKSRTSISRDTSKNQFSLQLSSVTPEDTAVYYCALYIRGSSWSGWSAYDYWGQGTQVTVSS
VL: QPVLNQPSAVSVSLGQTARITCQGGNFGYYYGSWYQQKPGQAPVLVIYKDSERPSGIPERFSGSSSGGTATLTISRAQAEDEADYYCQSADSSDNPVFGGGTHLTVL
notes: VH on human CH1 constant domain (with part of the hinge region), VL on human lambda constant domain; also called 4E8; Fab 4E8
B4: 1C09 Fab (Fab, V domains shown)
VH: QVQLVESGPGLVKPSQTLSLTCTVSGGSITTNSYYWSWIRQPPGKGLEWMGAIAYSGSTYYSPSLKSRTSISRDTSKNQFTLHLSSVTPEDTAVYYCARRPNWYRALDAWGQGTLVTVSS
VL: NFMLTQPSAVSVSLGQTARITCQGANLGRYYGIWYQQKPGQAPVQVIYGDSNRPSGIPERFSGSSSGGTATLTISGAQAEDEADYYCQSYESSTSPVFGGGTHLTVL
notes: VH on human CH1 constant domain (with part of the hinge region), VL on human lambda constant domain; also called 1C9; Fab 1C09
B5: scFv 6F06 (periplasmic extract, Myc-tagged) (scFv, not shown: small tags and cut ends)
scFv: QVQLVESGGGLVQPGGSLRLSCAASEFTFSRYSMSWVRQAPGKGLEWVSTINSGGGSTSYVDSVKGRFTISRDNAKNTLYLQMNSLKPEDTAVYYCTKSQGGISFSTQYGMDYWGKGTLVTVSSGGGGSGGGGSGGGGSNFMLTQPSAVSVSLGQTARITCQGGNFGRYYANWYQQKPGQAPVLVIYKDSERPSGIPERFSGSSSGDTATLTISGAQAEDESDYYCQSGSVSDNAVFGGGTHLAVL
B6: scFv 6E10 (periplasmic extract, Myc-tagged) (scFv, not shown: small tags and cut ends)
scFv: QLQLVESGGGLVQPGGSLRLSCAASGFTFSSYWMYWVRQAPGKGLEWVSAINTGGGSTYYADSVKGRFTISRDNAKNTLYLQMNSLKPEDTALYYCARAGSGVAGTGYDYWGQGTQVTVSSGGGGSGGGGSGGGGSQPVLNQPSAVSVSLGQTARITCQGGNFGYYYVSWYQQKPGQAPVLVIYRDSGRPSGIPERFSGSSSGDTATLTISGAQAEDEADYYCQSGSSSDNAVFGGGTHLTVL
notes: also called 6E010

The target in one assay is T1, human galectin-10-His (recombinant …). As to the kind of experiment: ELISA, Fab on coated galectin-10-His. In general terms: ELISA stands for enzyme-linked immunosorbent assay.
One may read the EC50 as the concentration that produces a half-maximal response. Turning to B1, the Bmax was determined as 0.9 OD and the EC50 stood at 0.0016 µM.

Take B2: the Bmax came out at 0.8 OD and the EC50 turned out to be 0.0267 µM.

Take B3: the Bmax is 0.7 OD and the EC50 is 0.0256 µM.

With B4, the Bmax amounted to 1 OD and the EC50 was 0.0019 µM.

The target is the same in the next assay. As to the kind of experiment: BLI OctetRed96, Fab on galectin-10-His.
Broadly, the Kd is a measure of binding affinity in units of concentration. For orientation: koff means the rate constant with which the complex falls apart. Turning to B1, the Kd worked out at 0.0107 µM and the koff was 0.000299 s⁻¹.

Consider B2, for which the Kd was 0.188 µM and the koff turned out to be 0.00356 s⁻¹.

As to B3, the Kd was found to be 0.147 µM and the koff was found to be 0.00248 s⁻¹.

On to B4, for which the Kd is 0.0134 µM and the koff was determined as 0.000383 s⁻¹.

For the next assay, the target named is T2, human galectin-10 as coated in ELISA …. As to the kind of experiment: ELISA, scFv periplasmic extract on coated soluble galectin-10, anti-Myc-HRP.
For the molecule B5, the “ELISA binding (OD values)” value is 3.8 OD.

Consider B6, for which the “ELISA binding (OD values)” value turned out to be 3.7 OD.

Another assay deals with T1, human galectin-10-His (recombinant …). As to the kind of experiment: BLI Octet RED96, galectin-10-His on anti-Penta-His tips, scFv periplasmic extract 1/10. How it is done: Briefly, galectin-10-His tagged diluted in Kinetic Buffer was captured on Anti-Penta His 1K sensor tips until an immobilization level of 1 nm was reached. Then, diluted periplasmic extracts (1/10) were applied and association/dissociation to immobilized galectin-10-His was measured using the ForteBio Data analysis 9.0 software (subtraction of the reference Tips, 1.1 binding model). During the screening, only the dissociation (off-rate) of the scFv can be determined since the effective concentration of the scFv is unknown and can vary a lot from clone to clone. […] Therefore, taking into consideration the ELISA and BLI data, a new panel of lead scFvs was selected.
(Biolayer interferometry detects binding as a change in optical thickness at a sensor tip.)
B5: the koff worked out at 0.0057 s⁻¹.

Take B6: the koff was 0.016 s⁻¹.
